These results are taken from paper PMC6177315 (Biochemistry, 2018).

Read-outs that look alike come from different tables or passages of the source. Where no end group is shown, it is not given here.

First the molecules themselves.
B1: human eIF5B_(951–1220), comprising domains 3 and 4 (GH-eIF5B-D34) (domain or fragment, UniProt O60841 951-1220, looked up)
chain: YKEDEIPVLKDELIHELKQTLNAIKLEEKGVYVQASTLGSLEALLEFLKTSEVPYAGINIGPVHKKDVMKASVMLEHDPQYAVILAFDVRIERDAQEMADSLGVRIFSAEIIYHLFDAFTKYRQDYKKQKQEEFKHIAVFPCKIKILPQYIFNSRDPIVMGVTVEAGQVKQGTPMCVPSKNFVDIGIVTSIEINHKQVDVAKKGQEVCVKIEPIPGESPKMFGRHFEATDILVSKISRQSIDALKDWFRDEMQKSDWQLIVELKKVFEII
B2: eIF5_(196–431) (GH-eIF5-CTD) (domain or fragment, human, UniProt P55010 196-431, looked up)
chain: EEEEDDDWGEDTTEEAQRRRMDEISDHAKVLTLSDDLERTIEERVNILFDFVKKKKEEGVIDSSDKEIVAEAERLDVKAMGPLVLTEVLFNEKIREQIKKYRRHFLRFCHNNKKAQRYLLHGLECVVAMHQAQLISKIPHILKEMYDADLLEEEVIISWSEKASKKYVSKELAKEIRVKAEPFIKWLKEAEEESSGGEEEDEDENIEVVYSKAASVPKVETVKSDNKDDDIDIDAI
B3: human eIF5B_(1076–1220), comprising domain 4 (GH-eIF5B-D4) (domain or fragment, UniProt O60841 1076-1220, looked up)
chain: YKKQKQEEFKHIAVFPCKIKILPQYIFNSRDPIVMGVTVEAGQVKQGTPMCVPSKNFVDIGIVTSIEINHKQVDVAKKGQEVCVKIEPIPGESPKMFGRHFEATDILVSKISRQSIDALKDWFRDEMQKSDWQLIVELKKVFEII

Holding throughout (assay): fluorescence polarisation
The target in test [1] is Full-length human eIF5 (GH-eIF5) (human, UniProt P55010 1-431).
For test [2], the target named is B1.
Test [3] deals with B3.
Test [4] addresses B1. This is another data set of the same source.
In test [5] the target is B3. This is another data set of the same source.
The target of test [6] is B2.

A word on the Kd: it is a measure of binding affinity in units of concentration. Lower therefore signals tighter binding. In turn, B1 gave a Kd in test [1] of 510 nM. In test [2], B2 displayed a Kd of 720 nM. Consider DDDIDIDAI (peptide, UniProt P55010 423-431, looked up) [eIF5 fragment comprising the C-terminal 9 residues (eIF5-CT9)], for which the Kd in test [2] stood at 1200 nM; in test [3] it was 740 nM.

Consider EEEDEDENIEVVYSKAASVPKVETVKSDNKDDDIDIDAI (peptide, UniProt P55010 393-431, looked up) [eIF5 fragment comprising the C-terminal 39 residues (eIF5-CT39)], for which the figures for the Kd in test [2] and in test [3] were 1100 nM and 500 nM, respectively.

Regarding DIDIDAI (peptide, UniProt P55010 425-431, looked up, also: fluorescein label, position not given here) [fluorescein-labeled 7-residue eIF5 C-terminal peptide (Fl-eIF5-CT7)], the Kd in test [4] amounted to 2400 nM; in test [5], 1400 nM.

Consider B3, for which the Kd in test [1] and in test [6] was 370 nM in each case.
